Experimental data reported in patent US20110195494A1 (Boehringer Ingelheim, published 2011).
Residue numbers refer to the chain shown, from its start.

T1: human DLL1 (Alexis) (human, UniProt O00548 18-545, limits assumed)
T1 construct: also called hDLL1; rhDLL1
T1 sequence (looked up): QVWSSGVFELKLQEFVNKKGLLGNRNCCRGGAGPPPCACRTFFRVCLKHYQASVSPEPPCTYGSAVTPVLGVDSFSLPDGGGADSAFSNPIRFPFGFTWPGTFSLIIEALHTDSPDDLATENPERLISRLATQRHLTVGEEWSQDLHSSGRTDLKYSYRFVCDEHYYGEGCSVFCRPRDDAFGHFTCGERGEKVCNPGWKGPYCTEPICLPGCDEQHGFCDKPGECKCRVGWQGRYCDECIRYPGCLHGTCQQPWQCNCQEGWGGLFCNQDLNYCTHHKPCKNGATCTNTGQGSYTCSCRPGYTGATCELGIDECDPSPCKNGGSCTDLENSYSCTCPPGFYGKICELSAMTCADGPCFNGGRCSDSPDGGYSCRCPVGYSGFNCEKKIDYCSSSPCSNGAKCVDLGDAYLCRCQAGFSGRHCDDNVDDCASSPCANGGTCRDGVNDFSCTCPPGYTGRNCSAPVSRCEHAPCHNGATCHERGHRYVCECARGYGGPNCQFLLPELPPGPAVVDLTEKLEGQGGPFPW

B1: DLLBII8A09 (VHH)
VHH: EVQLVESGGGLVQPGGSLRLSCAASGFTLDYYNIGWFRQAPGKEREWVSCINSSDGSTYYADSVKGRFTISRDNAKNTVYLQMNSLKPEDTAVYYCAAPFAYYSNLCGVNGYDYWGQGTQVTVSS
notes: also called DLLBII08A09; not shown: C-terminal c-myc tag and His6 tag
B2: DLLBII28B06 (VHH)
VHH: EVQLVESGGGLVQAGGSLRLSCAASGSTFSTYAMGWYRQDPGNQRELVAAISSDGSTHYADSVKGRFTISRDNAKNTVYLQMNSLKPEDTAVYYCYAPVKVAGLEYDYWGQGTQVTVSS
notes: tested as periplasmic extract; also called DLLBII28B6; not shown: C-terminal c-myc tag and His6 tag
B3: DLLBII19F12 (VHH)
VHH: EVQLVESGGGLVQAGGSLRLSCTASGSTFTSYAMGWYRQAPGKQRELVAAISSDDSTYYADCVKGRFTISRDNAKNTVYLQMNSLKPEDTAVYYCNAPHSDYDEEAPSDFGSWGQGTQVTVSS
notes: tested as periplasmic extract; not shown: C-terminal c-myc tag and His6 tag
B4: DLLBII17G10 (VHH)
VHH: EVQLVESGGGLVQAGGSLRLSCAASGSTFSSYAMGWYRHQAPGKQRELVAAISSDGSTHYADSVKGRFTISRDNAKNTMYLQMNSLKPEDTAVYYCNTKTFGSNWYDDYWGQGTQVTVSS
notes: as for B3
B5: DLLBII17C01 (VHH)
VHH: EVQLVESGGGLVQAGGSLRLSCAASGFTFDDYPIGWLRQAPGKEREGVSCISSSDDSTYYADSVKGRFTISSNNAKNTVYLQMNSLKPEDTAVYYCAVRLFSGGCAVVAGTSWADFGSSGQGTQVTVSS
notes: tested as periplasmic extract; also called DLLBII17C1; not shown: C-terminal c-myc tag and His6 tag
B6: DLLBII7B05 (VHH)
VHH: EVQLVESGGGLVQAGGSLRLSCAASGFALDYYAVGWFRQAPGKEREGVSCISSRGGSTFYADSVKGRFTTSRNNAKNTVYLQMNSLKPEDTAVYYCAAHPLQNCCGGSAYASPEAVYEYWGQGTQVTVSS
notes: also called DLLBII07B05; DLLBII7B5; not shown: C-terminal c-myc tag and His6 tag
B7: DLLBII17F10 (VHH)
VHH: EVQLVESGGGLVQAGGSLRLSCASSGRTLLNYAMGWFRQAPGKEREFVSGINWSGGSTYYADSVKGRFTISRDNAENTVYLHMNSLKPEDTAVYYCAAAHDNYWFTDDSLGRGLKYWGQGTQVTVSS
notes: not shown: C-terminal c-myc tag and His6 tag
B8: DLLBII19D10 (VHH)
VHH: EVQLVESGGGLVQAGDSLRLSCAASGRTVGSYDMSWVRQGPGKEREWVSSINSGVGKTYYADSVKGRFTIFRDNAKNMVYLQMNNLKPEDTAVYYCATEMDGSRYVEGQGTQVTVSS
notes: as for B3
B9: DLLBII33C05 (VHH)
VHH: EVQLVESGGGLVQAGGSLRLSCAASGFTLDNYVIGWFRQAPGKEREEVSCISSSGGSTDYLDSVKGRFTISRDNAKNTVYLQMNSLKPEDTAVYYCAADSLPCYYDKMVYDYWGQGTQVTVSS
notes: tested as periplasmic extract; also called DLLBII33C5; not shown: C-terminal c-myc tag and His6 tag
B10: DLLBII5B11 (VHH)
VHH: EVQLVESGGGLVQPGGSLRLSCAISGFTLDLHVIGWLRQAPGKEREWVSCISSSDGSTYYADSVKGRFTISRDNAKNTVYLQMNSLKPEDTAVYYCAAPWDSWYCGIGNDYDYWGQGTQVTVSS
notes: also called DLLBII05B11; not shown: C-terminal c-myc tag and His6 tag
B11: DLLBII6B11 (VHH)
VHH: EVQLVESEGGLVQAGGSLRLSCAASGSTFSSYAMGWYRQAPGKQRELVAVISNGGITNYPNSVKGRFTISRDNAKNTVYLQMNSLKPEDTAVYYCFYSGSYYYPTDVHEYDYWGQGTQVTVSS
notes: also called DLLBII06B11; not shown: C-terminal c-myc tag and His6 tag
B12: DLLBII17B03 (VHH)
VHH: EVQLVESGGGLVQPGGSLRLSCAASGFTFENYALGWFRQAPGKEREWVSCISSSDGTTYYADSVKGRFTISRDNVKNTVYLQMNRLKPEDTAIYYCALSLGSSWCAYDYWGQGTQVTVSS
notes: tested as periplasmic extract; also called DLLBII17B3; not shown: C-terminal c-myc tag and His6 tag
B13: DLLBII19F04 (VHH)
VHH: EVQLVESGGGLVQAEGSLRLSCAASGSTFSTYAMAWYRQAPGKQRELVAGISFDGSTHYAESVKGRFTISRDDAKNTVSLQMNSLKPEDAAVYYCYSVHPSTGFGSWGQGTQVTVSS
notes: also called DLLBII19F4; not shown: C-terminal c-myc tag and His6 tag
B14: DLLBII8C11 (VHH)
VHH: EVQLVESGGGLVQAGGSLRLSCAASGFTFDDYAIGWFRQAPGKEREGVSCISSHDRTTYYADSVKGRFTISSDNAKNTVYLQMNSLKPEDTAVYYCAADPLVCGYNDPRLADYWGQGTQVTVSS
notes: also called DLLBII08C11; not shown: C-terminal c-myc tag and His6 tag
B15: DLLBII104G01 (VHH)
VHH: EVQLVESGGGLVQAGGSLRLSCAASGFTFDDYAIGWFRQAPGKEREGVSCISSSDGSTYYADSVKGRFTISSDNAKNTVYLQMNSLKPEDTAVYYCATAWCDSSWYRSFVGYWGQGTQVTVSS
notes: also called DLLBII104G1; 104G1; not shown: C-terminal c-myc tag and His6 tag
B16: DLLBII83G01 (VHH)
VHH: EVQLVESGGGLVQAGGSLRLSCAASGRTFSNYIMGWFRQAPGKEREFVAGISRYADYTGYADSVKGRFTISRDNVKNTVYLRMNSLKPDDTAVYYCAANEGYCSGYGCYEDSGQYDYWGQGTQVTVSS
notes: tested as periplasmic extract; also called DLLBII83G1; not shown: C-terminal c-myc tag and His6 tag
B17: DLLBII015 (VHH)
VHH: EVQLVESGGGLVQPGGSLRLSCAASGFTIGSYDMSWVRRSPGKGPEWVSAINSGGGSTYYADYVKGRFTISRDNAKNTLYLQMNSLKPEDTAVYYCAADRYIWARQGEYWGAYAYDYWGQGTQVTVSS
notes: not shown: C-terminal c-myc tag and (His)6 tag
B18: DLLBII136C07 (VHH)
VHH: B17 VHH with I29F, A50S, A114E
notes: as for B17
B19: DLLBII133G05 (VHH)
VHH: B17 VHH with I29F, A61T
notes: as for B17
B20: DLLBII133A09 (VHH)
VHH: B17 VHH with I29F
notes: as for B17

The binders below were run against T2, recombinant human DLL4, C-terminally His-tagged extracellular domain (R&D Systems) (human, UniProt Q9NR61 25-522, biotinylated where used in competition ELISA, AlphaScreen and on SA chips) (assay: competition ELISA, periplasmic extract).
T2 construct: also called rhDLL4; hDLL4; not shown: C-terminal His tag
T2 sequence (Q9NR61 25-522): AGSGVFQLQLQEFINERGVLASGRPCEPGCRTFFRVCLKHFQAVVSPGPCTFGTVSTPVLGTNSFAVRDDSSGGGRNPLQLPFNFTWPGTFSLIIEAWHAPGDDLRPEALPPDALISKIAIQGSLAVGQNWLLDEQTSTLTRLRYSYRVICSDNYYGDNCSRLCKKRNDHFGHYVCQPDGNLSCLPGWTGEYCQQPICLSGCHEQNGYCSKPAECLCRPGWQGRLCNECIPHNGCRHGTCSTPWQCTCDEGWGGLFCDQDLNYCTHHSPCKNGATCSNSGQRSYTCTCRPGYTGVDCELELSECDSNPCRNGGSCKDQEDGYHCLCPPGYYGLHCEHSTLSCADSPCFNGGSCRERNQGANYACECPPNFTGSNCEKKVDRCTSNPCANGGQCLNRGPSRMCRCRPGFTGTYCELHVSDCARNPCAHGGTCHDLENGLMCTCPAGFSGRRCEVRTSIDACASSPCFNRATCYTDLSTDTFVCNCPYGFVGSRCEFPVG
In the case of B1, the “ELISA hDLL4 % inhibition” value is reported as 96%.
In the case of B2, the “ELISA hDLL4 % inhibition” value is reported as 23%.
In the case of B3, the “ELISA hDLL4 % inhibition” value is reported as 98%.
In the case of B4, the “ELISA hDLL4 % inhibition” value is reported as 93%.
B5 was tested, and the “ELISA hDLL4 % inhibition” value was 82%.
In the case of B6, the “ELISA hDLL4 % inhibition” value is reported as 84%.
For B7, the “ELISA hDLL4 % inhibition” value was 98%.
For B8, the “ELISA hDLL4 % inhibition” value was 98%.
For B9, the “ELISA hDLL4 % inhibition” value was 86%.
B10 was tested, and the “ELISA hDLL4 % inhibition” value was 98%.
With B11 the “ELISA hDLL4 % inhibition” value was 98%.
With B12 the “ELISA hDLL4 % inhibition” value was 76%.
For B13, the “ELISA hDLL4 % inhibition” value was 98%.
In the case of B14, the “ELISA hDLL4 % inhibition” value is reported as 57%.

The binders below were run against T3, full length human DLL4 on overexpressing CHO or HEK293 cells (human, UniProt Q9NR61 27-685) (assay: FMAT, hNotch1/Fc on CHO-hDLL4, periplasmic extract).
T3 construct: also called CHO-hDLL4; HEK293-hDII4
T3 sequence (Q9NR61 27-685 limits assumed): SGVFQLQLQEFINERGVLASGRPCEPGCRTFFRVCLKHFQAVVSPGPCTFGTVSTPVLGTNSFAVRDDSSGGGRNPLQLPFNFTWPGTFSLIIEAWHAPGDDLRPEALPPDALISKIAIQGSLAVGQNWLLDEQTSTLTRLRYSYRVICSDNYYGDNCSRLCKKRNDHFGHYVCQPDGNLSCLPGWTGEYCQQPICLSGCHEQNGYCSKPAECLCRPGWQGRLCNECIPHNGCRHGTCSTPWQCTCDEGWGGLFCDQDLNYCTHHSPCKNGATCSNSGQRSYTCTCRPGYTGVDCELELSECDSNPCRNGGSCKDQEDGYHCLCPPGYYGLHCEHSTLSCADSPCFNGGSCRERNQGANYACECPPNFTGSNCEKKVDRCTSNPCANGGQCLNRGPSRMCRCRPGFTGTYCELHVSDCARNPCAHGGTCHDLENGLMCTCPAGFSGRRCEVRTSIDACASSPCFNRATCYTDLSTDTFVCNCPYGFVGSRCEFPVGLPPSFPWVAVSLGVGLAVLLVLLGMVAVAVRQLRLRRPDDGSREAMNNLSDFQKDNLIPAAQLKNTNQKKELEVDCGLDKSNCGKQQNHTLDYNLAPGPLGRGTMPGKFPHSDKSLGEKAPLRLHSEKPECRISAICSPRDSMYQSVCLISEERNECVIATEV
Description: (§1) All calculations are based on the FL1 total signal which comprises the average of the fluorescence per well times the number of counts per well.
With B15 the “FMAT hDLL4 % inhibition” value was 94%.
In the case of B16, the “FMAT hDLL4 % inhibition” value is reported as 87%.

These binders were tested against T4, full length mouse DLL4 on overexpressing CHO or HEK293 cells (mouse, UniProt Q9JI71 27-686) (assay: FMAT competition: labelled hNotch1/Fc on CHO-mDLL4 cells).
T4 construct: whole, on cells; also called CHO-mDLL4; mDLL4
T4 sequence (Q9JI71 27-686): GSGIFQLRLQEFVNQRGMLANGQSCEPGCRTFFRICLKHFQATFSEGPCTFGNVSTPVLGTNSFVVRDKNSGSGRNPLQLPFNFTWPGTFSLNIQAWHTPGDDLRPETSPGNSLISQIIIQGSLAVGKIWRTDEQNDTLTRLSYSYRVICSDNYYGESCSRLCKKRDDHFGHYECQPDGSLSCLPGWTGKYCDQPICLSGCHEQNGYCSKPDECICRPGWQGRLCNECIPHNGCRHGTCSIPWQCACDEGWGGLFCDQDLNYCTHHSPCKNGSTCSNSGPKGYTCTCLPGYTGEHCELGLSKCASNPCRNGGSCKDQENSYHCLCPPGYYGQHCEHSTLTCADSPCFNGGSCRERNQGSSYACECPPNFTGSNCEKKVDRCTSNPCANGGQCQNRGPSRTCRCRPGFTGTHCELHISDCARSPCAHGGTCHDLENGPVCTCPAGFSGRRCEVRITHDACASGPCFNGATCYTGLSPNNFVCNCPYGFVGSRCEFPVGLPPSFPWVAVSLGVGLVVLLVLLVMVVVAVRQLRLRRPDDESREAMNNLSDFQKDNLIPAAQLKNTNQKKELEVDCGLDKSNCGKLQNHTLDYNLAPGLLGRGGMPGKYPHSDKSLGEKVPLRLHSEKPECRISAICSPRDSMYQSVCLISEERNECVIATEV
Description: as §1
B15 was tested, and the “IC50 (read off the curve)” value was 64 to 70 nM.
In the case of B16, the “IC50 (read off the curve)” value is reported as about 50 nM.

These binders were tested against T5, human Jagged-1 (Alexis) (human, UniProt P78504 34-1067, limits assumed) (assay: binding ELISA, coated rhJagged-1).
T5 construct: also called hJag-1; hJAG1
B17: no binding (tested: 1e-6 M).
B18: no binding (tested: 1e-6 M).
B19: no binding (tested: 1e-6 M).
B20: no binding (tested: 1e-6 M).

What follows are binders tested against T1, human DLL1 (Alexis) (assay: binding ELISA, coated rhDLL1).
B17: no binding (tested: 1e-6 M).
B18: no binding (tested: 1e-6 M).
B19: no binding (tested: 1e-6 M).
B20: no binding (tested: 1e-6 M).

What follows are binders tested against T2, recombinant human DLL4, C-terminally … (assay: hDLL4/hNotch1-Fc AlphaScreen, periplasmic extract).
Experimental: Periplasmic extracts are screened in a human DII4/human Notch1 AlphaScreen assay to assess the blocking capacity of the expressed VHHs. Human DII4 is biotinylated using biotin (Sigma, St Louis, Mo., USA) and biotinamidohexanoic acid 3-sulfo-N-hydroxysuccinimide ester sodium salt (Sigma, St Louis, Mo., USA). […] To evaluate the neutralizing capacity of the VHHs, dilution series of the periplasmic extracts are pre-incubated with biotinylated human DII4. To this mixture, the acceptor beads and the streptavidin donor beads are added and further incubated for 1 hour at room temperature. Fluorescence is measured by reading plates on the Envision Multilabel Plate reader (Perkin Elmer, Waltham, Mass., USA) using an excitation wavelength of 680 nm and an emission wavelength of 520 nm.
B2 was tested, and the “Alpha Screen hDLL4 % inhibition” value was 54%.
With B3 the “Alpha Screen hDLL4 % inhibition” value was 98%.
In the case of B4, the “Alpha Screen hDLL4 % inhibition” value is reported as 82%.
In the case of B5, the “Alpha Screen hDLL4 % inhibition” value is reported as 84%.
B7 was tested, and the “Alpha Screen hDLL4 % inhibition” value was 88%.
For B8, the “Alpha Screen hDLL4 % inhibition” value was 85%.
In the case of B9, the “Alpha Screen hDLL4 % inhibition” value is reported as 75%.
For B12, the “Alpha Screen hDLL4 % inhibition” value was 77%.
For B13, the “Alpha Screen hDLL4 % inhibition” value was 95%.

The binders below were run against T4, full length mouse DLL4 on … (assay: FMAT, hNotch1/Fc on CHO-mDLL4, periplasmic extract).
Description: as §1
B15 was tested, and the “FMAT mDLL4 % inhibition” value was 86%.
With B16 the “FMAT mDLL4 % inhibition” value was 93%.
